Experimental data: PMC6450514, “Pseudomonas aeruginosa esterase PA2949, a bacterial homolog of the human membrane esterase ABHD6: expression, purification and crystallization” (Acta Crystallographica. Section F, Structural Biology …, 2019)

System: CCCC(=O)Oc1ccc([N+](=O)[O-])cc1
Test: purified protein
Conditions: 8 nM enzyme, 0.05-1 mM substrate, n-octyl beta-D-glucoside

PA2949 (Pseudomonas aeruginosa PAO1)
Km: 170 ± 10 µM | kcat: 520.4 ± 31.7 s⁻¹
